The supplement of paper PMC9170038

Tested on: MS2 coat protein
Assay: apparent KD of MS2 coat protein; designed switch direction (-1 OFF switch, 1 ON switch): -1; higher = weaker reporter binding
Outline: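 Apparent KD, taken as the median over clusters for each design, was obtained by curve-fitting normalised cluster fluorescence. Designed RNA switches had been transcribed on Illumina chips by stalled E. coli RNA polymerase and titrated with SNAP-549-labelled MS2 coat protein, doubling from 0.7 or 1.5 nM to 3 µM.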

[1] = Eterna round: R95, input ligand: microRNA oligo, concentration not stated
[2] = input ligand: microRNA oligo, concentration not stated
[3] = Eterna round: R95, input ligand: FMN 200 uM
[4] = Eterna round: R95, input ligand: none

| Sequence | apparent KD of MS2 coat protein [1] [nM] | apparent KD of MS2 coat protein (input ligand: FMN 200 uM) [nM] | apparent KD of MS2 coat protein (input ligand: none) [nM] | also measured |
| --- | --- | --- | --- | --- |
| ACAGCGUGAGGAUAUACAUGAGGAUCACCCAUGUGUGGCAGGUUAUCCUGUCAUAAGUGUAGAAGGCACGCUGU [Exclusion 3 - Oddities v.6 ( A small slide from ms2 to fmn)] (puzzle: Exclusion 3) | 37.2 | – | – | – |
| ACAAGCUUGUAAUGAUUGAACAUGAGGAUCACCCAUGUAAAUGGAAGAACCAACUUGAUAUGAUUUACUCGUCUUAU [JR_STOV1_Sub011] (Eterna round: R97, puzzle: Sensor, turn-off variant 1) | – | 676 | 546 | – |
| UGUUUAUAUGAAGGAUAUACUUAACAUGAGGAUCACCCAUGUGGUGUUGUGAGUGAGUGAGUUUAGUAGAAGGUCAAGUAUUUU [JMF's solution 54] (Eterna round: R96, puzzle: Exclusion NG 2) | – | 681 | 395 | apparent KD of MS2 coat protein [2]: 373 nM |
| ACCUCACUUGAGGAUCACCCAAGUCAGGAUAUACUCGUUUGCCGCACGACGCGGCAUUGUAGAAGGGACGGGCU [Soraedrale] (Eterna round: R97, puzzle: Exclusion 1) | – | 34.1 | 18.1 | – |
| AAAUUAGCAAGUAGGUCCGACAUGAGGAUCACCCAUGUUAUCUGAAAUAACGCAGCAUGAUUGUGCGCUCGUCUUAG [Sensor-V1 #7] (Eterna round: R97, puzzle: Sensor, turn-off variant 1) | – | 67.6 | 68.6 | – |
| ACAGCGUGAGGAUAUACAUGAGGAUCACCCAUGUGUGGCAGGUUAUCCUGUCAUGAGUGUAGAAGGCACGCUGU [Exclusion 3 - Oddities v.7 ( A small slide from ms2 to fmn)] (puzzle: Exclusion 3) | 26.2 | – | – | – |
| UACUAUAAGGAGGAUAUCGUAUCGGAAACGAUACGAGAAGGCUUAACAUGAGGAUCACCCAUGUUCUUCAAUAA [Fiskers Ex 6 - 25] (puzzle: Exclusion 6) | 16.2 | – | – | – |
| UGGUCACAUGAGGAUCACCCAUGUCAGGAUAUCGUCACUGGAGCCUCGGCUCCAGUGACGAGAAGGGACAUAAU [E1/6-A2] (Eterna round: R97, puzzle: Exclusion 1) | – | 267 | 254 | – |
| UGGCUGCUCAGGGAGUGUGACAUGAGGAUCACCCAUGUGGUAGUAAGGAACAAGCUUUUUGCACGUACUUAUGGGUC [JR_SV3TOV1_Sub010] (puzzle: Sensor v3, turn-off variant 1) | 204 | – | – | apparent KD of MS2 coat protein [3]: 268 nM; apparent KD of MS2 coat protein [4]: 375 nM |
| GAUGUUCUGGUCAGGAUAUGCAUCCGUCGGCCGGAGCAGAAGGGACAUGAGGAUCACCCAUGUGCGGGUACAAA [Onvegeor] (puzzle: Brourd's mod of Exclusion 4) | 38.4 | – | – | – |
| AAGGAGUGAGGAUAUGCGCGGGCACGCUCUAAAUAAGAAAGACAUGAGGAUCACCCAUGUAGAAGGCACAAUAA [Leedla] (puzzle: Exclusion 2) | 17.8 | – | – | – |
| GCUGGUCAAGGAUAUACAUGAGGAUCACCCAUGUGGUCACGUGACGAUAGUCACGAAUGUAGAAGGUGACCAGC [E3/3-C1] (Eterna round: R97, puzzle: Exclusion 3) | – | 51.1 | 260 | – |
| AAGAAACAUGAGGAUCACCCAUGUGAGGAUAUGAAAAAGAAAAGAAAAGAAAGAAGGAUCAGAAGGCACAAAGG [salish99-ex1_r3_025] (puzzle: Exclusion 1) | 30.3 | – | – | apparent KD of MS2 coat protein [3]: 43 nM; apparent KD of MS2 coat protein [4]: 34.1 nM |
| CCUCCACAUGAGGAUCACCCAUGUCAGGAUAUCGUGUGUUUUUUUUCGGUCUUUCGUGCGAGAAGGGACGUCUG (puzzle: Exclusion 1) | 28.1 | – | – | – |
| GUCUCACAUGAGGAUCACCCAUGUGAGGAUAUGGUUUCGCUGGCCGUAGCCAGUGGAACCAGAAGGCGCAUGAU [Mat - Exclusion 1 - JL Mod - D3] (Eterna round: R97, puzzle: Exclusion 1) | – | 24.7 | 23 | – |
| GUUAUGUCAGGAUAUGCUAAUGAUGAGUGAUCAGACAUGAUGUAGAAGGGACAUGAGGAUCACCCAUGUACUAA [EX4 #9] (Eterna round: R97, puzzle: Exclusion 4) | – | 30.6 | 29 | – |
| GGCUCGCCUCACAUGAGGAUCACCCAUGUACAAAACAAGAGGCAGGAUAUGGGCCGCGCAGCGGGCCAGAAGGGCCGCAUGGGU [Edsodidige] (Eterna round: R96, puzzle: Exclusion NG 3) | – | 62.9 | 113 | apparent KD of MS2 coat protein [2]: 67.7 nM |
| GCCGGAUAAGUGAGGAUAUACCUAUGGAUACAUAGGUAGAAGGCACAUGAGGAUCACCCAUGUUCCUCUCCGGC [JL-BMX4-4.17 Eli mod] (Eterna round: R97, puzzle: Brourd's mod of Exclusion 4) | – | 406 | 30.3 | – |

| Sequence | apparent KD of MS2 coat protein [1] [nM] | apparent KD of MS2 coat protein (input ligand: FMN 200 uM) [nM] | apparent KD of MS2 coat protein (input ligand: none) [nM] | also measured |
| --- | --- | --- | --- | --- |
| GCUUGACGAGGAUAUGCAUACACUGGAUACAGUGGAAGGUCACAUGAGGAUCACCCAUGUAGAAGGCGUCGAGC [EX2 #40] (Eterna round: R97, puzzle: Exclusion 2) | – | 123 | 35.4 | – |
| AUAUAGUGAGGAUAUCCAAUAUAUGACAUGAGGAUCACCCAUGUUUCCACUCGUACCUCCGGAGAAGGCACAUUUU [Ex5 #65] (Eterna round: R97, puzzle: Exclusion 5) | – | 27.2 | 27.6 | – |
| UUUAAUUUUUUUUUUUUACAAGCUUUUUGCUCGUCUUAUACAUGAGGAUCACCCAUGUAGGUGAGAGAUAAAUUAUC [JMF 15] (puzzle: Sensor v3, turn-off variant 2) | 128 | – | – | apparent KD of MS2 coat protein [3]: 19.6 nM; apparent KD of MS2 coat protein [4]: 24.4 nM |
| UUAAUGUGAGGAUAUCAAGUGUGAUAGAGUAAUGGUAAAUAUGAGAAGGCACAUGAGGAUCACCCAUGUUCUUC [Mat - Exclusion 4 - Mod of JL - D59] (puzzle: Exclusion 4) | 14 | – | – | – |
| CGUGACUCAGGAUAUCUAUAGUGUCACAUGAGGAUCACCCAUGUCCAGCGAAAGCUGGAGGGAGAAGGGAGUCACG [Fiskers Ex 5 - 43] (Eterna round: R96, puzzle: Exclusion 5) | – | 43.1 | 87.7 | apparent KD of MS2 coat protein [2]: 71.5 nM |
| UUUAAACAUGAGGAUCACCCAUGUAAGGAUAUACGAAUGCAGACACACACGGAUGCAAGUAGAAGGUACAAUGC [Design #9] (Eterna round: R97, puzzle: Exclusion 1) | – | 37.6 | 42.6 | – |
| ACAUGUAAUGCAGGAUAUGGGACACAUGAGGAUCACCCAUGUGACCAGAGGUAAUGCUAAGAGUCUCAGAAGGGUAUGUACAUG [Ex NG2 #49] (Eterna round: R96, puzzle: Exclusion NG 2) | – | 22.5 | 19 | apparent KD of MS2 coat protein [2]: 14.5 nM |
| GGUGAGCUAGGAUAUGCUUUGGGCCCGCAUUCCUUCGAUAAACUUGAGGAUCACCCAAGUAGAAGGAGCUUGCC [salish99_ex2_r4_031] (Eterna round: R97, puzzle: Exclusion 2) | – | 30.4 | 17 | – |
| GUGAGUAGUCAGGAUAUGCUGUACAAAAGUACAGCAGAAGGGACUACAUGAGGAUCACCCAUGUUUACUUCAUG [Omei Ex6 B5] (Eterna round: R97, puzzle: Exclusion 6) | – | 522 | 609 | – |
| ACAUGGAAGCAGGAUAUGCUUGUAUAAUUGUUUGCAGAAGGGCUAACAUGAGGAUCACCCAUGUAAGAGGUCUA [JR_E6_Sub061] (puzzle: Exclusion 6) | 15.9 | – | – | – |
| UAAGUUUACCGAGGAUAUGGUCAAUAAUUAUGACCAGAAGGCGGACUCAACAUGAGGAUCACCCAUGUAUAAAGGGUAAUUGGU [JR_ExcNG1_Sub047] (Eterna round: R96, puzzle: Exclusion NG 1) | – | 154 | 90.8 | apparent KD of MS2 coat protein [2]: 110 nM |
| CCAAGCUUAUUCAUUAACAACAUGAGGAUCACCCAUGUAUAGGCAAUUAUGACUGGGCUCUUUAGUGCUCGUCUUAU [Sensor-V1 #25] (Eterna round: R97, puzzle: Sensor, turn-off variant 1) | – | 16.2 | 14.7 | – |
| GACCGGACGUGGUCAGGUAACAUGAGGAUCACCCAUGUAGGUCUAAGAACAAGCCUUUUGUACGCUCGUCUUAUAUU [JR_SV3TOV1_Sub060] (puzzle: Sensor v3, turn-off variant 1) | 46.8 | – | – | apparent KD of MS2 coat protein [3]: 46.1 nM; apparent KD of MS2 coat protein [4]: 55.8 nM |
| AAGUGCAAAGGAUAUACGUGACUUACUCCAAUUGCUACCCGACAUGAGGAUCACCCAUGUAGAAGGUUGCGCAC [Eternabot (Original) Solution 20] (Eterna round: R97, puzzle: Exclusion 2) | – | 34.3 | 16.6 | – |
| CUGCUGGAGCUUUGCUUUAGUCGUACAUGAGGAUCACCCAUGUAGGAUAUGGUAGGCUUUGCUUACUAGAAGGAUGGAGUGGUC [salish99_ExNG3_r04_607] (Eterna round: R96, puzzle: Exclusion NG 3) | – | 166 | 50.2 | apparent KD of MS2 coat protein [2]: 38.1 nM |
| UUUUAACAAGCGAGGUCCCACAUGAGGAUCACCCAUGUAGGUCAUGGAUUCCAUGGUCUUUUUGCUCGUCUUGUGUG [jl TITIN mod 9] (Eterna round: R97, puzzle: Sensor, turn-off variant 1) | – | 32.2 | 31.6 | – |
| UACAUGAGGAUCACCCAUGUUUUGUCGUGUAUGGUAUUUAUCUAGGAUAUCAAGUUAUUUAUGUAUGAGAAGGAGAAUAUUAAU [JMF's solution 36] (Eterna round: R96, puzzle: Exclusion NG 3) | – | 42.5 | 35.2 | apparent KD of MS2 coat protein [2]: 26.4 nM |
